Laboratory results from IntAct's records for PubMed 18952841.

B1: Protein CBFA2T1 (Homo sapiens), Q06455 (parent)
chain: MISVKRNTWRALSLVIGDCRKKGNFEYCQDRTEKHSTMPDSPVDVKTQSRLTPPTMPPPPTTQGAPRTSSFTPTTLTNGTSHSPTALNGAPSPPNGFSNGPSSSSSSSLANQQLPPACGARQLSKLKRFLTTLQQFGNDISPEIGERVRTLVLGLVNSTLTIEEFHSKLQEATNFPLRPFVIPFLKANLPLLQRELLHCARLAKQNPAQYLAQHEQLLLDASTTSPVDSSELLLDVNENGKRRTPDRTKENGFDREPLHSEHPSKRPCTISPGQRYSPNNGLSYQPNGLPHPTPPPPQHYRLDDMAIAHHYRDSYRHPSHRDLRDRNRPMGLHGTRQEEMIDHRLTDREWAEEWKHLDHLLNCIMDMVEKTRRSLTVLRRCQEADREELNYWIRRYSDAEDLKKGGGSSSSHSRQQSPVNPDPVALDAHREFLHRPASGYVPEEIWKKAEEAVNEVKRQAMTELQKAVSEAERKAHDMITTERAKMERTVAEAKRQAAEDALAVINQQEDSSESCWNCGRKASETCSGCNTARYCGSFCQHKDWEKHHHICGQTLQAQQQGDTPAVSSSVTPNSGAGSPMDTPPAATPRSTTPGTPSTIETTPR

Variants of: B1
Settings: with son_human SON

Variant	effect of a mutation on the interaction
C515S	disrupting interaction strength

Variants of: B1
Settings: with son_mouse Son

Variant	effect of a mutation on the interaction
C515S	disrupting interaction strength
